The target in assay [1] is cynomolgus monkey γδ TCR on cynomolgus Vγ9+ γδ T cells (cynomolgus monkey). The experiment in a line: flow cytometry on expanded cynomolgus γδ T cells gated Vγ9+, anti-human Fcγ A647, MdFI. (In general: Flow cytometry measures light scatter and fluorescence of single cells or particles in a stream.)
Assay [2] has as its target human γδ TCR (Vγ9Vδ2) on human Vδ2+ γδ T cells (human) (UniProt A0JD36). The experiment in a line: flow cytometry on zoledronate-expanded human γδ T cells gated Vδ2+, anti-VHH Alexa647, MdFI.
Assay [3] shares this target. Put plainly: flow cytometry, monomeric VHH-hIgG1 Fc fusion on expanded human Vδ2+ γδ T cells, anti-human Fc A647, MFI.
Assay [4] shares this target. The description is as above. This is another data set of the same source.
Assay [5] shares this target. The experiment in a line: flow cytometry on expanded human Vδ2+ γδ T cells, nonlinear fit; from data in FIG. 6J.
Assay [6] shares this target. The experiment in a line: flow cytometry on expanded human Vδ2+ γδ T cells, nonlinear fit; from data in FIG. 6K.

Broadly, the EC50 (read off the curve) is the concentration giving half of the maximal effect. As usually defined, the Kd is the equilibrium constant for the complex coming apart.

B1: bivalent 1D7 VHH-human IgG1 Fc xELL fusion (VHH)
VHH: QVQLVQSGGGLVQPGGSLRLSCVASRGKISQYRMGWYRQAPGKQRELVAHISNTGDAAEYVDSVKGRFTISRDSTKNAVYLQMNSLKPEDTAVYKCNSVEDILAWGQGTQVTVKP
The molecule B1 came in with an EC50 (read off the curve) in assay [1] of 0.3 nM.

B2: 1D7v158×HSA×IL-2_X (h1D7v158 VHH - anti-HSA VHH - IL-2_X) (protein, part only; not given: anti-albumin VHH and linkers, part only)
chain, part: EVQLLESGGGEVQPGGSLRLSCVASRGKISQYRMGWYRQAPGKQRELVAHISNTGDAAEYVAPVKGRFTISRDNAKNALYLQMNSLRAEDTAVYKCNTVEDILAWGQGTLVTVEPAPASSSTKKTQLQLEALLLDLQMILNGINNYKNPKLTRMLTFKFYMPKKATELKHLQCLERELKRLEEVLNLAQSKNFHLRPRYLISNINVIVLELKGSETTFMCEYADETATIVEFLNRWITFSQSIISTLT
As to B2, the EC50 (read off the curve) in assay [2] was 4 nM.

B3: hu1D7v158 VHH-hIgG1 Fc-NNT (monomeric) (VHH)
VHH: EVQLLESGGGEVQPGGSLRLSCVASRGKISQYRMGWYRQAPGKQRELVAHISNTGDAAEYVAPVKGRFTISRDNAKNALYLQMNSLRAEDTAVYKCNTVEDILAWGQGTLVTVEP
On to B3, for which the values for the EC50 (read off the curve) in assay [3] and in assay [4] were 3 nM and 6 nM, respectively. Moreover, the Kd in assay [5] is 6.54 nM; in assay [6], 2.96 nM.
